Results as given in US20220228157A1, “GENE EDITING IN DIVERSE BACTERIA” (priority 2019, published 2022).

Experiments:
E. coli SEER chassis = experiment: SEER library selection (frequency and enrichment by NGS); format: cell-based, Escherichia coli; conditions: Broad RecT Library, 10 rounds of SEER
Protocol: Therefore, it was determined whether by screening additional RecT variants, again exploiting the increased throughput of SEER compared to previous efforts, one might discover recombineering proteins further improved over Redβ and PapRecT. To this aim a second library was constructed, identifying a maximally diverse group of 109 RecT variants, 106 of which were synthesized successfully, which was called Broad RecT Library (see Methods for more details). Next, as previously described, 10 rounds of SEER selection was performed on Broad RecT Library (FIGS. 8A-8B), and upon plotting frequency against enrichment after the final selection, a clear winner emerged (FIG. 9A). […]
Native resistance alleles were identified in each of the three species for resistance to rifampicin (rif) at the rpoB locus or streptomycin (stm) at the rpsL locus. The concentration of antibiotic necessary to confer a selective benefit to the resistant allele was determined for each strain. […]
Primers were designed to amplify a 215 bp product containing the barcode region of the SSAP libraries from the pARC8 plasmid and to add on Illumina adaptors. […] Barcoded amplicons were then purified with AMPure XP magnetic beads (Beckman Coulter), pooled, and the final pooled library was quantified with the NEBNext Library Quant Kit for Illumina (NEB). […]

E. coli = experiment: Fifteen cycles of MAGE with pool of 15 oligos, editing efficiency by NGS; format: cell-based, Escherichia coli; conditions: 15 separate mutations, one week
Protocol: E. coli populations expressing either an efficient SSAP (SEQ ID NO: 157), an efficient SSAP/SSB pair (SEQ ID NO: 157/SEQ ID NO: 384), or the widely-used Redβ were taken through fifteen cycles of MAGE and transformed each cycle with a 10 μM pool comprising 15 unique oligos. Editing efficiency at each targeted locus was measured by NGS and averaged (FIG. 3).

M. smegmatis = experiment: Allelic recombination frequency, selective vs non-selective plates; format: cell-based, Mycobacterium smegmatis
Protocol: A single colony of M. smegmatis was grown overnight to saturation. The next day 25 μL of dense culture was inoculated into 5 mL of fresh media in the evening and grown overnight to an OD600 of 0.9. Cells were pelleted at 4° C. by centrifugation at 3,500×g for 10 minutes and washed twice with 10 mL ice-cold 10% glycerol. Cells were resuspended in 360 μL ice-cold 10% glycerol and transferred along with 10 μL of DNA to a pre-chilled 0.2 cm electroporation cuvette.
Electrocompetent cells were electroporated with 90-mer oligos at: 1 uM for E. coli, 50 μg for L. lactis, and 10 uM for C. crescentus. 70-mer oligos were used at 1 μg for M. smegmatis. All oligos were obtained from IDT and can be found under “Oligonucleotides for genome editing” in materials and methods. For dsDNA experiments L. lactis was electroporated with 1.5 μg purified linear dsDNA. Cells were electroporated using a Bio-Rad gene pulser set to 25 μF, 200 S2, and 1.8 kV for E. coli, 2.0 kV for L. lactis, and 1.5 kV for C. crescentus and to 1000Ω and 2.5 kV for M. smegmatis. […] Colonies were counted using a custom script in Fiji, and allelic recombination frequency was calculated by dividing the number of colonies on selective plates, with the number of colonies on non-selective plates.

B1: CspRecT: RecT SSAP (UniParc ID: UPI0001837D7F) from a phage of Collinsella stercoris (protein)
chain: MNQIVKFTDDSGLAVQVTPDDVRRYICENATEKEVGLFLQLCQTQRLNPFVKDAYLVKYGGAPASMITSYQVFNRRACRDANYDGIKSGVVVLRDGDVVHKRGAACYKKAGEELIGGWAEVRFKDGRETAYAEVALDDYSTGKSNWAKMPGVMIEKCAKAAAWRLAFPDTFQGMYAAEEMDQAQQPEQVRAQAEQPVDLQPIRELFKPYCEHFGITPAEGMTAVCGAVGAEGMHSMTEQQARRARAWMEEEMAAPAVEAEYEVVDEGEVF
modifications: Collinsella stercoris DSM 13279
Frequency against enrichment after final selection (E. coli SEER chassis): clear winner

B2: Redβ: Redβ SSAP from Enterobacteria phage λ, SEQ ID NO: 474 (protein)
chain: MSTALATLAGKLAERVGMDSVDPQELITTLRQTAFKCDASDAQFIALLIVANQYGLNPWTKEIYAFPDKQNGIVPVVGVDGWSRIINENQQFDGMDFEQDNESCTCRIYRKDRNHPICVTEWMDECRREPFKTREGREITGPWQSHPKRMLRHKAMIQCARLAFGFAGIYDKDEAERIVENTAYTAERQPERDITPVNDETMQEINTLLIALDKTWDDDLLPLCSQIFRRDIRASSELTQAEAVKALGFLKQKATEQKVAA
modifications: Bacteriophage Lambda
Editing efficiency, averaged over targeted loci (E. coli): ~20%

B3: PapRecT: SSAP from Pseudomonas aeruginosa, SEQ ID NO: 24, UniParc ID: UPI0001E9E6CB (protein, listed as Pseudomonas aeruginosa)
chain: MGTALTPLLTKFATRYEMGTTPEEVANTLKQTCFKGQVNDSQMVALLIVADQYKLNPFTKELYAFPDKNNGIVPVVGVDGWARIINENPQFDGMEFSMDQQGTECTCKIYRKDRSHAISATEYMAECKRNTQPWQSHPRRMLRHKAMIQCARLAFGFAGIYDQDEAERIVERDVTPAEQYEDVSEAICLIKDSPTMEDLQAAFSNAWKAYKTKGARDQLTAAKDQRKKELLDAPIDVEFEETGDDRAA
Editing efficiency (M. smegmatis): enabled high efficiency editing
